In the supplement of paper PMC9112550, “Optimization of the antimicrobial peptide Bac7 by deep mutational scanning” (BMC Biology, 2022):

System: Escherichia coli TOP10
Experiment: shrunken log2 fold change of peptide-encoding DNA abundance (4.5 h post-induction vs induction); higher = less antimicrobial activity (less host growth inhibition)
Details: time post-induction: 4.5 h; library: site-saturation at positions 5, 18, 19, 20
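Note: peptides expressed intracellularly from a pBAD plasmid library in pooled LB shake-flask culture, induced with 0.3% L-arabinose, DNA abundance read by NGS, three biological replicates, DESeq2 with apeglm shrinkage.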

Sequence	shrunken log2 fold change
RRIRWRPPRLPRPRPRPIMQPRP	0.0828
RRIRPRPPRLPRPRPRPGWEPRP	0.462
RRIRPRPPRLPRPRPRPFETPRP	-0.117
RRIRPRPPRLPRPRPRPTCVPRP	-0.136
RRIRWRPPRLPRPRPRPDGWPRP	1.12
RRIRLRPPRLPRPRPRPLCQPRP	-0.125
RRIRDRPPRLPRPRPRPQWQPRP	-0.0558
RRIRNRPPRLPRPRPRPGNEPRP	-0.223
RRIRARPPRLPRPRPRPSDRPRP	-0.0583
RRIRIRPPRLPRPRPRPTKHPRP	-0.528
RRIRTRPPRLPRPRPRPDWYPRP	-0.622
RRIRLRPPRLPRPRPRPSMYPRP	-0.261
RRIRQRPPRLPRPRPRPYVIPRP	0.0316
RRIRMRPPRLPRPRPRPKAIPRP	0.417
RRIRNRPPRLPRPRPRPYHEPRP	-0.342
RRIRDRPPRLPRPRPRPFFYPRP	-0.0714
RRIRARPPRLPRPRPRPNVLPRP	0.00594
RRIRMRPPRLPRPRPRPQHVPRP	0.0365
RRIRTRPPRLPRPRPRPGGAPRP	0.38
RRIRRRPPRLPRPRPRPPGTPRP	0.705
RRIRHRPPRLPRPRPRPPAYPRP	0.181
RRIRHRPPRLPRPRPRPGPMPRP	0.247
RRIRWRPPRLPRPRPRPWFIPRP	-0.436
RRIRSRPPRLPRPRPRPCPNPRP	-0.209
RRIRQRPPRLPRPRPRPNMDPRP	-0.225

Sequence	shrunken log2 fold change
RRIRYRPPRLPRPRPRPPAKPRP	0.441
RRIRRRPPRLPRPRPRPAGWPRP	0.593
RRIRLRPPRLPRPRPRPYKGPRP	-0.027
RRIRRRPPRLPRPRPRPDSHPRP	-0.00863
RRIRGRPPRLPRPRPRPQSSPRP	0.000815
RRIRCRPPRLPRPRPRPINQPRP	-0.485
RRIRERPPRLPRPRPRPGAQPRP	-0.23
RRIRYRPPRLPRPRPRPNVNPRP	-1.2
RRIRMRPPRLPRPRPRPDGEPRP	0.857
RRIRFRPPRLPRPRPRPMNGPRP	-0.0885
RRIRYRPPRLPRPRPRPLTKPRP	-0.281
RRIRPRPPRLPRPRPRPSKPPRP	0.0728
RRIRHRPPRLPRPRPRPHSVPRP	-0.0237
RRIRVRPPRLPRPRPRPEWFPRP	-0.154
RRIRERPPRLPRPRPRPFYQPRP	-0.0388
RRIRKRPPRLPRPRPRPFHMPRP	-0.424
RRIRCRPPRLPRPRPRPTNYPRP	0.263
RRIRNRPPRLPRPRPRPTLQPRP	0.0909
RRIRIRPPRLPRPRPRPREFPRP	0.0231
RRIRNRPPRLPRPRPRPKYMPRP	-0.854
RRIRWRPPRLPRPRPRPGMIPRP	-0.0827
RRIRHRPPRLPRPRPRPCSAPRP	-0.473
RRIRLRPPRLPRPRPRPMQGPRP	-0.0711
RRIRGRPPRLPRPRPRPIQYPRP	-0.0751
RRIRMRPPRLPRPRPRPWMCPRP	-0.01

Sequence	shrunken log2 fold change
RRIRMRPPRLPRPRPRPEAIPRP	2.54
RRIRPRPPRLPRPRPRPWSYPRP	-0.214
RRIRFRPPRLPRPRPRPGSGPRP	0.161
RRIRDRPPRLPRPRPRPSLDPRP	-0.0616
RRIRQRPPRLPRPRPRPNLEPRP	-0.136
RRIRVRPPRLPRPRPRPDRIPRP	-0.135
RRIRWRPPRLPRPRPRPRSQPRP	0.434
RRIRPRPPRLPRPRPRPCGCPRP	0.098
RRIRGRPPRLPRPRPRPMSGPRP	0.0585
RRIRSRPPRLPRPRPRPYVRPRP	-0.0846
RRIRLRPPRLPRPRPRPKVVPRP	-0.0761
RRIRTRPPRLPRPRPRPTTGPRP	-0.191
RRIRPRPPRLPRPRPRPVEFPRP	0.068
RRIRWRPPRLPRPRPRPIGQPRP	0.00299
RRIRKRPPRLPRPRPRPGCHPRP	0.0456
RRIRARPPRLPRPRPRPLCMPRP	-0.125
RRIRHRPPRLPRPRPRPGDVPRP	-0.16
RRIRTRPPRLPRPRPRPVPDPRP	-0.0687
RRIRQRPPRLPRPRPRPDFYPRP	-0.288
RRIRGRPPRLPRPRPRPISQPRP	0.135
RRIRDRPPRLPRPRPRPYRWPRP	-0.146
RRIRGRPPRLPRPRPRPYDDPRP	-0.199
RRIRVRPPRLPRPRPRPYRKPRP	-0.259
RRIRGRPPRLPRPRPRPFVHPRP	0.111
RRIRGRPPRLPRPRPRPTVAPRP	1.99

Sequence	shrunken log2 fold change
RRIRWRPPRLPRPRPRPLKDPRP	-0.178
RRIRKRPPRLPRPRPRPWEQPRP	0.0133
RRIRIRPPRLPRPRPRPWQMPRP	0.0562
RRIRVRPPRLPRPRPRPQHLPRP	-0.117
RRIRWRPPRLPRPRPRPYTNPRP	-0.993
RRIRYRPPRLPRPRPRPMDHPRP	-0.237
RRIRCRPPRLPRPRPRPWSTPRP	-0.148
RRIRARPPRLPRPRPRPMQIPRP	0.446
RRIRWRPPRLPRPRPRPILWPRP	0.117
RRIRCRPPRLPRPRPRPCMPPRP	-0.66
RRIRQRPPRLPRPRPRPEDNPRP	-0.0442
RRIRNRPPRLPRPRPRPYYIPRP	-0.131
RRIRMRPPRLPRPRPRPSHDPRP	0.0846
RRIRSRPPRLPRPRPRPGIHPRP	0.115
RRIRWRPPRLPRPRPRPSRGPRP	0.532
RRIRLRPPRLPRPRPRPTYYPRP	-0.399
RRIRARPPRLPRPRPRPSLSPRP	-0.224
RRIRPRPPRLPRPRPRPNSRPRP	-0.1
RRIRRRPPRLPRPRPRPMWLPRP	0.105
RRIRLRPPRLPRPRPRPCQVPRP	-0.128
RRIRYRPPRLPRPRPRPNYAPRP	-0.223
RRIRSRPPRLPRPRPRPVVTPRP	0.021
RRIRPRPPRLPRPRPRPFISPRP	-0.706
RRIRIRPPRLPRPRPRPWAPPRP	-0.19
RRIRARPPRLPRPRPRPCECPRP	0.633

Sequence	shrunken log2 fold change
RRIRQRPPRLPRPRPRPHLRPRP	-0.0964
RRIRYRPPRLPRPRPRPTDDPRP	0.0131
RRIRKRPPRLPRPRPRPCCPPRP	-0.044
RRIRVRPPRLPRPRPRPIMMPRP	-0.0138
RRIRFRPPRLPRPRPRPDFGPRP	0.0422
RRIRWRPPRLPRPRPRPKLHPRP	0.0953
RRIRIRPPRLPRPRPRPEFCPRP	-0.0252
RRIRNRPPRLPRPRPRPFGWPRP	0.0221
RRIRSRPPRLPRPRPRPFPVPRP	-0.516
RRIRNRPPRLPRPRPRPMFAPRP	-0.239
RRIRHRPPRLPRPRPRPVQYPRP	0.00489
RRIRGRPPRLPRPRPRPWCDPRP	0.0715
RRIRKRPPRLPRPRPRPCQTPRP	0.233
RRIRGRPPRLPRPRPRPWPLPRP	0.797
RRIRDRPPRLPRPRPRPDPWPRP	0.295
RRIRGRPPRLPRPRPRPVNDPRP	0.368
RRIRARPPRLPRPRPRPLGHPRP	0.134
RRIRMRPPRLPRPRPRPEFYPRP	-0.056
RRIRARPPRLPRPRPRPYMLPRP	-0.659
RRIRDRPPRLPRPRPRPACWPRP	0.929
RRIRMRPPRLPRPRPRPNFGPRP	0.0832
RRIRVRPPRLPRPRPRPGVAPRP	0.377
RRIRGRPPRLPRPRPRPPVMPRP	0.333
RRIRYRPPRLPRPRPRPWYWPRP	-0.0383
RRIRKRPPRLPRPRPRPCYKPRP	0.0747
